# B1: anti-EREG mouse monoclonal antibody EP29 (B3#41) (antibody, mouse IgG1, V domains shown)
# VH: EVQLQQSGTVLARPGASVKMSCKASGYTFTSYWMHWVKQRPGQGLEWIGAIYPGNSDSYNQKFKGKAKLTAVTSTSTAYMELSSLTNEDSAVYYCTSVMAYWGQGTSVTVSS
# VL: DIQMTQSPSSLSASLGERVSLTCRASQDIGNSLNWLQQEPDGTIKRLIYATSNLDSGVSKRFSGSRSGSDYSLTISSLESEDFVDYYCLQYASSPWTFGGGTKLEIK
# notes: Mouse IgG1/κ hybridoma antibody
# B2: anti-EREG mouse monoclonal antibody EP20 (B2#30) (antibody, mouse IgG1, V domains shown)
# VH: QVQLQQSGAELVRPGVSVKISCKGSGYTFTVYSLHWVKQSHARSLEWIGVISTYYGDAIYNQKFKGKATMTVDKSSSTAYMELARLTSEDSAIYYCAREGNGNPLDYWGQGTTLTVSS
# VL: QIVLTQSPAIMSASLGERVTMTCTASSSVSSSYLHWYQQKPGSSPKLWIYSTSNLASGVPARFSGSGSGTSYSLTITNMEAEDSATYYCHQYHRSPLTFGAGTKLELK
# notes: as for B1
# B3: anti-EREG mouse monoclonal antibody EP27 (B3#18) (antibody, mouse IgG2b, V domains shown)
# VH: EDQLQQSGAELVKPGASVKLSCTASGFNIKDTYIQWVKLRPEQGLEWIGRIDPLNGNTKYVPKFQGKATITADTSSNTAYLQLSSLTSEDTAVYYCVRSGTLFDFWGQGTTLTVSS
# VL: DIQMTQSPSSLSASLGGKVTITCKASQDIHKYIAWYQHKPGKGPRLLIQYTSTLQPGIPSRFSGSGSGRDYSFSISNLEPEDIATYYCLQYDNLRTFGGGTKLEIK
# notes: also called B3#18_IgG2b
# B4: anti-EREG mouse monoclonal antibody EP08 (#15) (antibody, mouse IgG1, V domains shown)
# VH: QVQLQQPGAELVKPGASVKLSCKASGYTFTSYWMHWVKQRPGQGLEWIGEINPYNGGTNYNEKFKSKATLTVDKSSSTAYMQLSSLTSEDSAVYYCTIWKLGTYWGQGTLVTVSA
# VL: DIQMTQSPSSLSASLGERVSLTCRASQEISGYLSWLQQKPDGTIKRLIYAASTLDSGVPKRFSGSRSGSDYSLTISSLESEDFADYYCLQYASYPRTFGGGTKLEIK
# notes: as for B1
# B5: anti-EREG mouse monoclonal antibody EP24 (B3#8) (antibody, mouse IgG1, V domains shown)
# VH: QVQLKESGPGLVAPSQSLSITCTVSGFSLSSYGVHWVRQPPGKGLEWLGVIWRDGSTTYNSALKSRLSISKDGSKSQVFLKMNSLQTDDTAMYYCARNWNGLMDYWGQGTSVTVSS
# VL: DIQMTQTTSSLSASLGDRVTISCRASQDISYYLNWYQQRPDGTVKLLIYYTSRLHSGVPSRFSGSGSGTESSLTISNLEQEDIATYFCQQGHTVPWTFGGGTKLEIK
# notes: as for B1
# B6: anti-EREG mouse monoclonal antibody EP03 (C7) (antibody, mouse IgG1, V domains shown)
# VH: QVQLQQPGAELVKPGASVKLSCKASGYTFTNYWMNWVKQRPGRGLEWIGRIHPSDSETHYNQKFKNKATLTVDKSSSTAYIQLSSLTSEDSAVYYCANLYYYTMDYWGQGTSVTVSS
# VL: DIQMTQSPSSLSASLGGKVTITCKASQDINKNIAWHQHKPGKGPRLLIWYTSTLQPGIPSRFSGSGSGRDYSFSISNLEPEDIATYYCLQYDNLPYTFGSGTKLEIK
# notes: as for B1
# Target: T1, soluble human EREG fragment (EGF domain; 63Val to 108Leu) comprising a mature structure, R&D Systems cat. no. … (human, UniProt O14944 63-108)
# T1 construct: Bought protein; also called soluble EREG; recombinant human EREG
# T1 sequence (O14944 63-108): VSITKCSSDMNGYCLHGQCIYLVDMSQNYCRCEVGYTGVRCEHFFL
# Experiment: ELISA, EREG fragment immobilized on immuno plate; note: binds, but with low reactivity
# Experimental: (§1) The binding towards partial fragments of the extracellular domain of human EREG was analyzed to determine antibody epitope. The N-terminal partial sequence fragment of ²⁹Ala to ⁶⁹Ser of human EREG of SEQ ID NO: 21 was expressed as a GST fusion protein and purified to homogeneity. The sequence of the obtained recombinant protein is shown in SEQ ID NO: 172. A soluble human EREG fragment (EGF domain; corresponding to ⁶³Val to ¹⁰⁸Leu of SEQ ID NO: 21) comprising a mature structure was purchased from R&D Systems (cat. no. 1195-EP/CF). Fragments of the EREG protein were immobilized onto an immuno plate, and the binding of the antibodies was examined by ELISA. Most of the antibodies bound to the soluble EREG fragment that comprises the EGF domain (indicated as “ereg” in Table 3). EP25 and EP32 bound to the N-terminal fragment (“Nterm”). All of the isolated antibodies bound to either one of the peptide fragments, and none of the antibodies recognized the sequence beyond residue 109.
row,Binder,binding result
1,B1,binds

# Target: T1, soluble human EREG fragment (EGF …)
# Experiment: ELISA, EREG fragment immobilized on immuno plate
# Experimental: as §1
row,Binder,binding result
1,B2,binds
2,B3,binds
3,B4,binds
4,B5,binds
5,B6,binds
